Tests used:
AtCBF1 [1] = biological target: T1, AtCBF1 (Arabidopsis thaliana, UniProt P93835 1-213); assay: EMSA
AtCBF1 [2] = biological target: T1, AtCBF1; assay: competition
OsDREB1C (WT) [3] = biological target: T2, OsDREB1C (WT) (Oryza sativa, UniProt Q9LWV3 1-214); assay: competition
OsDREB1C-m2 (R12K) = OsDREB1C-m2 (R12K) (Oryza sativa, UniProt Q9LWV3 1-214, R45K); assay: competition
OsDREB1C-m1 (A10_) = OsDREB1C-m1 (A10_) (Oryza sativa, UniProt Q9LWV3 1-214, del43-43); assay: EMSA
OsDREB1C (WT) [4] = biological target: T2, OsDREB1C (WT); assay: EMSA

T1 sequence (P93835 whole entry): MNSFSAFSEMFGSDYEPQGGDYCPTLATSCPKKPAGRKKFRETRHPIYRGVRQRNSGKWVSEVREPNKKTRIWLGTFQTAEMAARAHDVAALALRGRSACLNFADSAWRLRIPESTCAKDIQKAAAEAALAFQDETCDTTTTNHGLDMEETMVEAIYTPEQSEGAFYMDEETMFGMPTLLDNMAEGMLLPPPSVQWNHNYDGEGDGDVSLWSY

B1: ACCGAC probe, 29 bp (dsDNA)
DNA 1: CAGGAGCTCGATGTAACCGACCTCGTCGA
DNA 2: TCGACGAGGTCGGTTACATCGAGCTCCTG
- binding result (AtCBF1 [1]): binds

B2: OsNR2 GCCGAC competitor, 29 bp (dsDNA)
DNA 1: CAGGAGCTCGATGTAGCCGACCTCGTCGA
DNA 2: TCGACGAGGTCGGCTACATCGAGCTCCTG
- binding result (AtCBF1 [2]): binds
- binding result (OsDREB1C (WT) [3]): binds
- binding result (OsDREB1C-m2 (R12K)): binds

B3: ACCGAC competitor, 29 bp (dsDNA)
DNA 1: CAGGAGCTCGATGTAACCGACCTCGTCGA
DNA 2: TCGACGAGGTCGGTTACATCGAGCTCCTG
- binding result (AtCBF1 [2]): binds
- binding result (OsDREB1C-m2 (R12K)): binds

B4: OsNR2 GCCGAC probe, 29 bp (dsDNA)
DNA 1: CAGGAGCTCGATGTAGCCGACCTCGTCGA
DNA 2: TCGACGAGGTCGGCTACATCGAGCTCCTG
- binding result (OsDREB1C-m1 (A10_)): binds
- binding result (OsDREB1C (WT) [4]): binds

Source: PMC11119335
